Measured values: EP0957164B1

Molecular target: insulin (UniProt P01308)
Assay: PEG precipitation assay, A14-125I-insulin tracer displaced by unlabeled insulin, BHK medium

UniProt P01308, sequence (P01308 90-110 limits assumed, chain 1 of 2): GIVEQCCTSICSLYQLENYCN
UniProt P01308, sequence (P01308 25-54 limits assumed, chain 2 of 2): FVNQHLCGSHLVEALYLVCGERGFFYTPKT

Row | Substance | Kd
1 | IRΔ673 (receptor) | 1.1 nM
2 | IRΔ703 (receptor) | 4.4 nM
3 | IRΔ685 (receptor) | 6.4 nM
4 | IGFIR(Δ459-672).1-68, 704-729.IR (receptor) | 4.4 nM
5 | IGFIR(Δ459-672).1-68IR (receptor) | 2.1 nM
